Test results as given in patent US20090036365A1 (DYAX, published 2009).

Assays:
human plasmin [1] = target: T1, human plasmin (human, UniProt P00747 97-810, limits assumed); experiment: inhibition of plasmin hydrolysis of a fluorogenic substrate, tight-binding fit; measured Ki used as KD
T1 construct: also called plasmin-beads; plasmin-agarose beads

human plasmin [2] = target: T1, human plasmin; experiment: binding of clonally pure display phage to plasmin relative to BPTI display phage
human plasmin [3] = target: T1, human plasmin; experiment: preliminary plasmin inhibition test; measured Ki used as KD
human plasmin [4] = target: T1, human plasmin; experiment: inhibition of plasmin by soluble protein; measured Ki used as KD
human plasmin [5] = target: T1, human plasmin; experiment: as above; remark: listed apart in the source
Trypsin [6] = target: T2, Trypsin; experiment: display phage binding to immobilised trypsin, 2 washes
T2 construct: also called trypsin-agarose beads
T2 sequence (P00760 24-246): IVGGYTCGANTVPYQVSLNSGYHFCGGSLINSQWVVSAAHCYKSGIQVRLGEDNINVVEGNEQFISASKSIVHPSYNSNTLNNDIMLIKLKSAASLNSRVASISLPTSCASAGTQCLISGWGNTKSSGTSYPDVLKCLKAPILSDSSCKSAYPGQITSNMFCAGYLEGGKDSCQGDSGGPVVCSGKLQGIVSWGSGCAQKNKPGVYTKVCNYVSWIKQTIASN

Kallikrein = experiment: display phage binding to immobilised protease
Chain of Kallikrein (P03952 20-390, chain 1 of 2): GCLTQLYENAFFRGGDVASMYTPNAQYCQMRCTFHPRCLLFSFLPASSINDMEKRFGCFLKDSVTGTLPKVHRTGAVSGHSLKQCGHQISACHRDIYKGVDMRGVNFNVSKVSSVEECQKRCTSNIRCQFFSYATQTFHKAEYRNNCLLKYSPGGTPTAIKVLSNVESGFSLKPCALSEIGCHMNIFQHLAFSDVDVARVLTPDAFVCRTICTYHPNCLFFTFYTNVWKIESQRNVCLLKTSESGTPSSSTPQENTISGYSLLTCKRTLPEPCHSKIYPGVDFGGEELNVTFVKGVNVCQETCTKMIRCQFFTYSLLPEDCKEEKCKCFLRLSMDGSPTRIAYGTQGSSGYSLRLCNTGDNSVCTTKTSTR
Chain of Kallikrein (P03952 391-638, chain 2 of 2): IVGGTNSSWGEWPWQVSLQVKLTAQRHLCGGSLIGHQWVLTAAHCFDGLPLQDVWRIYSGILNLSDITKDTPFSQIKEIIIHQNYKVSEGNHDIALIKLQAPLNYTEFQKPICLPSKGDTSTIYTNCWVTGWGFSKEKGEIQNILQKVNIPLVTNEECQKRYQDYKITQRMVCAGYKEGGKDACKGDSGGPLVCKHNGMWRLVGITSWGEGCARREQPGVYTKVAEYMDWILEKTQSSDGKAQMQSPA

Thrombin = experiment: display phage binding to immobilised protease
Trypsin [7] = target: T2, Trypsin; experiment: display phage binding to immobilised protease
human plasmin [8] = target: T1, human plasmin; experiment: display phage binding to immobilised protease
human plasmin [9] = target: T1, human plasmin; experiment: display phage binding to protease beads

T1 sequence (P00747 97-810 limits assumed): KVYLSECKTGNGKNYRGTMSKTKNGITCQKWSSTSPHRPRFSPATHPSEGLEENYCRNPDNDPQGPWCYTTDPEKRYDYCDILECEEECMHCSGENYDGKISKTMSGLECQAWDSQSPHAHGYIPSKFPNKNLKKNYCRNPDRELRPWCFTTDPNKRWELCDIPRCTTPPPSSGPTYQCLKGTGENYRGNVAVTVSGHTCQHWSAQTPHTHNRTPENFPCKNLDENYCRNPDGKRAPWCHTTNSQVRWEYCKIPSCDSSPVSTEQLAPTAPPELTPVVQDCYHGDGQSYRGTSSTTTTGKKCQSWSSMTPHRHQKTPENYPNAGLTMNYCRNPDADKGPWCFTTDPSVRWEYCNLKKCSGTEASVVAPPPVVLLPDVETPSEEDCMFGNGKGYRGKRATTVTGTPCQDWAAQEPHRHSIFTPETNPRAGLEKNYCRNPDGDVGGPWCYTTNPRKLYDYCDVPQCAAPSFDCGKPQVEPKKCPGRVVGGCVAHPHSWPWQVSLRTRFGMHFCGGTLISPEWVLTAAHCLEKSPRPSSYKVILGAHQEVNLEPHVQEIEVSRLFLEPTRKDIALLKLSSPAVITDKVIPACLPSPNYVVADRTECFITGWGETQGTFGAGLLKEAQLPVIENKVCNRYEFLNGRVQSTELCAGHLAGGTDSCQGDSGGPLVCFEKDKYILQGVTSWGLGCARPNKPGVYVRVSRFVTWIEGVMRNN

Binder | Phage Binding (relative to BPTI phage) (human plasmin [2]) | Kd (human plasmin [3]) | other results
QS4, yeast-expressed soluble protein (designed binder, Expressed in S. cerevisiae from a mat alpha fusion, purified on trypsin-agarose; also called QS4 variant) EAAEMHSFCAFKADDGPCKARFERFFFNIFTRQCEQFYYGGCDGNQNRFESLEECKKMCTRD |  |  | Kd (human plasmin [1]): 2 nM
SPI08 (designed binder, also called isolate 08) MHSFCAFKADGGPCRARFERFFFNIFTRQCEEFIYGGCEGNQNRFESLEECKKMCTRD | 2.6 fold of BPTI phage |  | 
SPI15 (designed binder, 41 for the whole domain; 90 for the printed residues 10-21; also called SP115; isolate 15) MHSFCAFKAESGPCRARFDRWFFNIFTRQCEEFIYGGCEGNQNRFESLEECKKMCTRD | 2.5 fold of BPTI phage |  | 
SPI01 (designed binder, 112 for the printed residues 10-21) MHSFCAFKADSGACRAMFHRFFFNIFTRQCEEFIYGGCEGNQNRFESLEECKKMCTRD | 0.25 fold of BPTI phage |  | 
SPI23 (designed binder, also called isolate 23) MHSFCAFKAEGGPCRAKFQRWFFNIFTRQCEEFIYGGCEGNQNRFESLEECKKMCTRD | 1.25 fold of BPTI phage | ~0.5 nM | 
SPI05 (designed binder, 105 for the printed residues 10-21) MHSFCAFKAESGPCRAKFARFFFNIFTRQCEEFIYGGCEGNQNRFESLEECKKMCTRD | 0.64 fold of BPTI phage |  | 
SPI02 (designed binder, 102 for the printed residues 10-21) MHSFCAFKADSGPCRGRFERFFFNIFTRQCEEFIYGGCEGNQNRFESLEECKKMCTRD | 0.83 fold of BPTI phage |  | 
SPI21 (designed binder, 116 for the printed residues 10-21) MHSFCAFKADSGACKGKFERWFFNIFTRQCEEFIYGGCEGNQNRFESLEECKKMCTRD | 0.38 fold of BPTI phage |  | 
SPI47 (designed binder) MHSFCAFKADAGPCRAKFERFFFNIFTRQCEEFIYGGCEGNQNRFESLEECKKMCTRD |  | ~0.8 nM | 
SPI17 (designed binder, 104 for the printed residues 10-21) MHSFCAFKAEVGPCRARIQRFFFNIFTRQCEEFIYGGCEGNQNRFESLEECKKMCTRD | 0.09 fold of BPTI phage |  | 
SPI16 (designed binder, 110 for the printed residues 10-21) MHSFCAFKAEVGACKGRFHRWFFNIFTRQCEEFIYGGCEGNQNRFESLEECKKMCTRD | 0.22 fold of BPTI phage |  | 
SPI03 (designed binder, 108 for the printed residues 10-21) MHSFCAFKADSGPCKARFDRWFFNIFTRQCEEFIYGGCEGNQNRFESLEECKKMCTRD | 0.48 fold of BPTI phage |  | 
SPI22 (designed binder, also called isolate 22) MHSFCAFKADGGPCKGKFPRFFFNIFTRQCEEFIYGGCEGNQNRFESLEECKKMCTRD | 2 fold of BPTI phage | > 2 nM | 
SPI43 (designed binder) MHSFCAFKAETGPCRGKFDRWFFNIFTRQCESFHYGGCKGNQNRFESLEECKKMCTRD |  | > 4 nM | 
SPI11 (Selected Plasmin Inhibitor#11) (designed binder, also called isolate 11) MHSFCAFKAETGPCRARFDRWFFNIFTRQCEEFIYGGCEGNQNRFESLEECKKMCTRD | 3.2 fold of BPTI phage |  | Kd (human plasmin [4]): 0.088 nM; Kd (human plasmin [5]): 0.088 nM
SPI51 (designed binder) MHSFCAFKADAGPCRAKFERFFFNIFTRQCTAFFYGGCGGNQNRFESLEECKKMCTRD |  | ~0.5 nM | 
QS4 displayed on gIIIp of M13 (designed binder, also called phage that display the LACI-K1 derivative QS4) MHSFCAFKADDGPCKARFERFFFNIFTRQCEQFYYGGCDGNQNRFESLEECKKMCTRD |  |  | relative binding (LACI-K1 phage = unit) (Trypsin [6]): 0.5 fold of LACI-K1 phage; relative binding (LACI-K1 phage = unit) (Kallikrein): 0.9 fold of LACI-K1 phage; relative binding (LACI-K1 phage = unit) (Thrombin): 0.7 fold of LACI-K1 phage; relative binding (LACI-K1 phage = unit) (Trypsin [7]): 4.5 fold of LACI-K1 phage; relative binding (LACI-K1 phage = unit) (human plasmin [8]): 52 fold of LACI-K1 phage; fold binding to plasmin beads over other protease targets (human plasmin [9]): ≥ 50 fold
SPI54 (designed binder) MHSFCAFKADSGPCRARFDRWFFNIFTRQCTRFPYGGCGGNQNRFESLEECKKMCTRD |  | > 4 nM | 
